“Also recorded” adds a separate entry of the source.
Tests used:
rat NRP2 = biological target: T1, rat NRP2 (Rattus norvegicus, UniProt O35276); assay: SPR protein-protein interaction, rat NRP2 over immobilized protein; format: binding; details: 50 nM rat NRP2 as analyte
T1 construct: Fc (C); His (C); purchased R&D Systems 567-N2
T1 sequence (O35276 23-925): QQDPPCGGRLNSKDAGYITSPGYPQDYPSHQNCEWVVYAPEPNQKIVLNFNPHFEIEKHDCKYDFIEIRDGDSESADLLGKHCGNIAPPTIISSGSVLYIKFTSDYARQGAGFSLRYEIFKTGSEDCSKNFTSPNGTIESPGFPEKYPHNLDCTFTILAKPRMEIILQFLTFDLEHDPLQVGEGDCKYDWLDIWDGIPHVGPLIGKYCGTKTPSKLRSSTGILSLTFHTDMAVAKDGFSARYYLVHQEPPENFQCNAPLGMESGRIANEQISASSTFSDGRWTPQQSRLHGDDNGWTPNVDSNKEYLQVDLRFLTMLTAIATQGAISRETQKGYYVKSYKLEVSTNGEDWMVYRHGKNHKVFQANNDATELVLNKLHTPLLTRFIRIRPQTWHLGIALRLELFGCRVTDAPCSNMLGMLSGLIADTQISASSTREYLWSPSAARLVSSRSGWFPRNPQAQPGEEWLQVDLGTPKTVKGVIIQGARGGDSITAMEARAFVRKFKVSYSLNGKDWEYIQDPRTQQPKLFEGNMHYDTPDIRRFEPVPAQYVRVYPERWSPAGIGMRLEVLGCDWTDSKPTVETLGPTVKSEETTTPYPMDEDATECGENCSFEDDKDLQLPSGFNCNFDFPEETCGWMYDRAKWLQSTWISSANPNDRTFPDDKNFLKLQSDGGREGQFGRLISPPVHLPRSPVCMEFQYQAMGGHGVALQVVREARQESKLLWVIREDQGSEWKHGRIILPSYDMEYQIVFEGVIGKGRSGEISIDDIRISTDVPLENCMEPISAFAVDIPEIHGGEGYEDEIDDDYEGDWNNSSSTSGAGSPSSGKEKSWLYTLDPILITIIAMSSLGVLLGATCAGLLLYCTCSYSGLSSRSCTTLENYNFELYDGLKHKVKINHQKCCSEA
Description: (§1) Protein-Protein Interaction studies. […] SPR experiments were conducted on a Bio-Rad ProteOn XPR36 Protein Interaction Array instrument. Proteins were immobilized on different channels of ProteOn GLC sensor chips through amine coupling. Analyte proteins were flowed over the immobilized proteins. The sensor chip surface was regenerated between each analyte run to remove interacting proteins. Data was double referenced against an interspot (untreated chip surface) and a blank surface (activated and deactivated for amine coupling).
(§2) Studies were performed to confirm the binding specificity of Neuropilin 2 (NRP2) to Fc-HRS(2-60) using orthologous methods to those used in the large scale Retrogenix screening (Example 1). In a series of experiments, Fc-HRS(2-60) and related proteins were immobilized on SPR chips, and NRP2 and related proteins were flowed as analytes. Upon confirmation of the NRP2:Fc-HRS(2-60) interaction, the dependence on divalent cations was tested as NRP2 is known to have Ca^2+ binding sites. The effects of previously characterized NRP2 ligands on the NRP2: Fc-HRS(2-60) interaction was also tested to determine if these known ligands have competitive effects on the Fc-HRS(2-60) interaction.

[1] = biological target: T2, cell-expressed NRP2 (NRP2a-GFP fusion protein on HEK293T cells) (Homo sapiens, UniProt O60462); assay: Immunofluorescence binding of Fc-HRS (2-60) to HEK293T cells overexpressing NRP2v2-GFP; details: HEK293T cells overexpressing NRP2v2-GFP, GFP Bright cells
T2 construct: host or cells: HEK293T
Description: Reagents: • PE anti-human IgG Fc Antibody, clone HP6017, Biolegend cat 409304 • Mouse Anti-HRS monoclonal antibody (1-96) Clone 1C8, Abnova cat H00003035-M01 • Mouse IgG2a, Isotype control antibody (MOPC-173), Biolegend cat 400223 • Recombinant Human VEGF-C Protein, R&D Systems, cat 2179-VC-025/CF • Formaldehyde, 16%, methanol free, Ultra Pure, Polysciences, cat 18814-10 • Hoechst 33342, Trihydrochloride, Trihydrate, ThermoFisher Scientific, cat H1399 • Fc-HRS (2-60) was prepared as described in PCT application PCT/US2014/029699 • Gibco DMEM, High Glucose, ThermoFisher Scientific, cat 11965092 • PolyJet™ In Vitro DNA Transfection Reagent, SignaGen, cat SL100688 • Neuropilin 2 (NRP2) (NM_003872) Human ORF Clone, Origene, cat RG220706 • Collagen Coating Solution, Cell Applications Cat 125-100 • 1×PBS containing 1% BSA, 0.9 mM CaCl2 and 20 mM glucose • Binding buffer containing 1% normal mouse IgG (sigma cat 18765) and 2.5% (Human Fc Receptor Binding Inhibitor, ebioscience 14-9161-73).
Cell culture and transfection. […]
Immunofluorescence assays on cultured cells. Binding and quantitation of Fc-HRS (2-60) to cell-expressed NRP2 was achieved using immunofluorescence microscopy. […] The Hoechst stain was replaced with 1×PBS and subsequently read on an IN Cell Analyzer 2200. 20× images were acquired and analyzed using In Cell Analyzer 1000 Workstation software. […]

NRP2 [2] = biological target: T3, NRP2 (Homo sapiens, UniProt O60462); assay: SPR protein-protein interaction, human NRP2 over immobilized protein; format: binding; details: NRP2 flowed as analyte (50 nM or 20 nM); running buffer with 5 mM CaCl2
T3 construct: Fc (C); purchased R&D Systems 2215-N2
Description: as §1, §2

mouse NRP2 = biological target: T4, mouse NRP2 (Mus musculus, UniProt O35375); assay: SPR protein-protein interaction, mouse NRP2 over immobilized protein; format: binding; details: 50 nM mouse NRP2 as analyte
T4 construct: Fc (C); purchased R&D Systems 7988-N2
T4 sequence (O35375 21-931): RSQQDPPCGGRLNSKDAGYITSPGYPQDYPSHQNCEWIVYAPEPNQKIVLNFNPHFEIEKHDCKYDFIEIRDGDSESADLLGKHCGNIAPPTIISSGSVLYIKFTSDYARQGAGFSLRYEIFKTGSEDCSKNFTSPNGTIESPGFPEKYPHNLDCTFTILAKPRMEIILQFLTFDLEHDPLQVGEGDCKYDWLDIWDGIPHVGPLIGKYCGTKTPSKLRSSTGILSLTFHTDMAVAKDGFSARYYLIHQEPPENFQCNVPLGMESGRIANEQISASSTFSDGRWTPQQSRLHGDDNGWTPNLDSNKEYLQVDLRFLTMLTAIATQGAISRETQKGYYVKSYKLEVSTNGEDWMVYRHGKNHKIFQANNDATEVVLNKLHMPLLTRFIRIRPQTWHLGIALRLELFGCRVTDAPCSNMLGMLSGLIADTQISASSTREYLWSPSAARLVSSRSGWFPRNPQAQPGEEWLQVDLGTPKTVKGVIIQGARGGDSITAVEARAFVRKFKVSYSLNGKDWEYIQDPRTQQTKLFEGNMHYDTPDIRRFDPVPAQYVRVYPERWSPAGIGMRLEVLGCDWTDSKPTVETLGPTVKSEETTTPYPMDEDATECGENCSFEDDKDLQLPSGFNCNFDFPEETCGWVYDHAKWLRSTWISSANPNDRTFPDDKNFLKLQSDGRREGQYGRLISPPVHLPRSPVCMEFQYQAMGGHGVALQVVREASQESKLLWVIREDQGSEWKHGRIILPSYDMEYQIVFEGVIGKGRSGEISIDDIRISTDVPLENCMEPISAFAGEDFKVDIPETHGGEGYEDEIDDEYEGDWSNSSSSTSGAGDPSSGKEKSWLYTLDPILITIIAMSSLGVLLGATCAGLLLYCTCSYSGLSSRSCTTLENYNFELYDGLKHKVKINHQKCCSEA
Description: as §1, §2

[3] = biological target: T5, NRP2:Fc-HRS(2-60) interaction (Homo sapiens, UniProt O60462); assay: SPR competition of known NRP2 ligands with the NRP2:Fc-HRS(2-60) interaction; format: binding
T5 construct: Fc (C); purchased R&D Systems 2215-N2
Description: as §1, §2
(§3) A subset of the known ligands of NRP2 appears to compete binding of Fc-HRS(2-60) to NRP2.

NRP2 [4] = biological target: T3, NRP2; assay: SPR binding of known ligands to NRP2; details: known NRP2 ligands
Description: as §1, §3

Substance | binding of rat NRP2 to immobilized protein (SPR) (rat NRP2) | binding to cell-expressed NRP2a (staining intensity of anti-Fc-PE complex) [1] | binding of human NRP2 to immobilized protein (SPR) (NRP2 [2]) | binding of mouse NRP2 to immobilized protein (SPR) (mouse NRP2) | effect of ligand on binding of NRP2 to Fc-HRS(2-60) (SPR) ([3]; NRP2 in the presence of the ligand over immobilized Fc-HRS(2-60)) | Competes with Fc-HRS(2-60) for NRP2 binding ([3]; SPR, NRP2 binding to immobilized Fc-HRS(2-60) in presence of ligand) | Binding to NRP2 observed by SPR (NRP2 [4])
Fc-HRS(2-11): truncated form of Fc-HRS(2-60) with a 49 amino acid deletion at the C-terminus, deleting the majority of the WHEP domain | not a truncated form of Fc-HRS(2-11); also recorded: none of these NRP2 forms bind | negligible specific binding | not a truncated form of Fc-HRS(2-11); also recorded: none of these NRP2 forms bind | not a truncated form of Fc-HRS(2-11); also recorded: none of these NRP2 forms bind |  |  | 
VEGF-A165: commercial protein (Peprotech #100-20) [reference compound] |  |  |  |  | reduced or ablated | Yes | Yes

— US20230039401A1, “COMPOSITIONS AND METHODS FOR TREATING NRP2-ASSOCIATED DISEASES” (aTyr Pharma, Inc., priority 2018, published 2023)
